This note sets out measurements from PMC7991749.

The test system of series [1] is ctXPD (Chaetomium thermophilum). Nature of the series: photo-cross-linking. The following applies: 5 mM Mg2+, FA: 20 mM HEPES pH 7.5, 30 mM KCl, 5 mM MgCl2, 1 mM TCEP, 10 nM DNA, photo-cross-linking: 20 mM HEPES pH 7.5, 50 mM KCl.
The test system of series [2] is ctXPD;ctp44 (Chaetomium thermophilum;Chaetomium thermophilum). Nature of the series: photo-cross-linking. As to conditions: 5 mM Mg2+, 2.5 mM ATP, FA: 20 mM HEPES pH 7.5, 30 mM KCl, 5 mM MgCl2, 1 mM TCEP, 10 nM DNA, room temperature, photo-cross-linking: 20 mM HEPES pH 7.5, 50 mM KCl.
Series [3] shares this test system. Nature of the series: fluorescence anisotropy. The following applies: FA: 20 mM HEPES pH 7.5, 30 mM KCl, 5 mM MgCl2, 1 mM TCEP, 10 nM DNA, room temperature, photo-cross-linking: 20 mM HEPES pH 7.5, 50 mM KCl.
For series [4], the target named is ctXPD (XPD helicase from Chaetomium thermophilum) (Chaetomium thermophilum).

In series [1] (2.5 mM ATP, no ctp44, position 26 of strand 1 (B) = Fab(g)-dC, room temperature), “AAGCCTATGCCTACAGCATCCAGGGCGACGGTGCCGAGGATGACGATGAGCGCA / TGCGCTCATCGTCATCCTCGGCACCGTCGCCCTGGATG [fs-Fab(g)-dC 54/38]” yielded a binding signal (fold vs same probe without ATP) of 2.1. In addition, the binding signal (fold vs same mixture without ATP) stood at 1.8 in series [2] (ctXPD adduct, position 26 of strand 1 (B) = Fab(g)-dC) and 2 in series [2] (ctp44 adduct, position 26 of strand 1 (B) = Fab(g)-dC).

“AAGCCTATGCCTACAGCATCCAGGGCGACGGTGCCGAGGATGACGATGAGCGCA / TGCGCTCATCGTCATCCTCGGCACCGTCGCCCTGGATG [fs-Fap-dC 54/38]” gave a binding signal (relative cross-linking (reference)) in series [1] (no ATP, no ctp44, Fap-dC at position 26 of strand 1 (position inferred from parallel oligos), room temperature) of 1. Also, the binding signal (fold vs same mixture without ATP) in series [2] (ctXPD adduct, Fap-dC at position 26 of strand 1 (position inferred from parallel oligos)) is 2.6; in series [2] (ctp44 adduct, Fap-dC at position 26 of strand 1 (position inferred from parallel oligos)), 2.

With “AAGCCTATGCCTACAGCATCCAGGGCGACGGTGCCGAGGATGACGATGAGCGCA [ss-Fab(g)-dC 54]”, the binding signal (fold cross-linking vs ds probe) in series [1] (position 26 (B) = Fab(g)-dC, room temperature, 5 mM MgCl2, 1 mM …) stood at 3.

Consider “AAGCCTATGCCTACAGCATCCAGGGCGACGGTGCCGAGGATGACGATGAGCGCA [ss-Fap-dC 54]”, for which the binding signal (fold cross-linking vs ds probe) in series [1] (Fap-dC at position 26 (position inferred from parallel oligos), room …) is 3.

Substance “ATGCCTACAGCAAGCCTATGCCTACAGCATCCAGGGCGACGGTGCCGAG [ss-Fab(g)-dC 49]” came in with a K half in series [3] (5 mM Mg2+, 2 mM ATP, EC50, position 37 (B) = Fab(g)-dC) of 268 nM.

As for “ATGCCTACAGCAAGCCTATGCCTACAGCATCCAGGGCGACGGTGCCGAG [ss-Fap-dC 49]”, the K half in series [3] (5 mM Mg2+, 2 mM ATP, EC50, Fap-dC at position 37 (position inferred from parallel oligos)) stood at 307 nM; in series [3] (Fap-dC at position 37 (position inferred from parallel oligos)), 200 nM.

Regarding “ATGCCTACAGCAAGCCTATGCCTACAGCATCCAGGGCGACGGTGCCGAG [ss-um 49]”, the K half in series [3] (none) was found to be 500 nM.

Consider “ATGCCTACAGCAAGCCTATGCCTACAGCATCCAGGGNGACGGTGCCGAG [ss-nAnt 49 (ss-Ant)]”, for which, in series [3] (position 37 (N; printed A) = nAnt, N-[6-(9-anthracenylcarbamoyl)hexanoyl]-3-amino-1,2-propanediol, non-nucleoside lesion), the K half was determined as 63 nM.

For the substance “ATGCCTACAGCAAGCCTATGCCTACAGCATCCAGGGNGACGGTGCCGAG [ss-nFlu 49]”, the K half in series [3] (position 37 (N; printed F) = nFlu lesion) turned out to be 3 nM.

ctp44 (1-285) (domain or fragment): in series [4], the ATPase activity of ctXPD (NADH-coupled assay, 37°C): activation by 4 to 1000 nM ctp44 titrated onto 250 nM ctXPD in the presence of 1 μM ssDNA was found to be 82 nM.
